From PMC6391921

Assays:
Test in all cases: BLI
[1] = target: H3ssF_C, H3 stabilized HA stem ferritin nanoparticle, design C (influenza A virus A/Finland/486/2004 (H3N2) | not stated) (UniProt Q9ZLI1)
[2] = target: H3ssF_H, H3 stabilized HA stem ferritin nanoparticle, design H (influenza A virus A/Finland/486/2004 (H3N2) | not stated) (UniProt Q9ZLI1)
[3] = target: full-length H3 HA trimer (influenza A virus (H3))

Substance: CT149 Fab
- Kd [1]: 0.0213 µM
- koff [1]: 0.017 s⁻¹
- kon [1]: 810000 M⁻¹ s⁻¹
- Kd [2]: 0.0222 µM
- koff [2]: 0.018 s⁻¹
- kon [2]: 820000 M⁻¹ s⁻¹
- Kd [3]: 0.0422 µM
- koff [3]: 0.0032 s⁻¹
- kon [3]: 75000 M⁻¹ s⁻¹
